Patent publication US20250340607A1 (UNIVERSITY OF CHICAGO, published 2025)

T1: murine Flt3 (R&D 768-F3-050) (murine, UniProt Q00342 28-544)
T1 construct: Bought recombinant protein coated on the ELISA plate; also called receptor for Flt3L; recombinant CD135
T1 sequence (looked up): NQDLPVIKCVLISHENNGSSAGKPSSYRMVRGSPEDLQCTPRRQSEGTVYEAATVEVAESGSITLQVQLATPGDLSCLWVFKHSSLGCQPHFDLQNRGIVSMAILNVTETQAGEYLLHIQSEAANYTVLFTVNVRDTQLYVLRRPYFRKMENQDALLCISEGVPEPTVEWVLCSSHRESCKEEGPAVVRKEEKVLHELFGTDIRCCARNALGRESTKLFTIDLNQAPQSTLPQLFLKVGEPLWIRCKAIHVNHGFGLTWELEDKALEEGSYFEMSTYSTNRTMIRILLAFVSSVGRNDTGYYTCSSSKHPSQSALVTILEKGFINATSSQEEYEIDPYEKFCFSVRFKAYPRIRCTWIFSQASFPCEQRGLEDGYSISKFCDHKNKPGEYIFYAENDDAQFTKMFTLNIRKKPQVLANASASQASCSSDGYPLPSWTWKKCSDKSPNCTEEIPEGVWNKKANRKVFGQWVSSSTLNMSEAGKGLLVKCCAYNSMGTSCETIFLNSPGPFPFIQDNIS


Target: T1, murine Flt3 (R&D 768-F3-050)
Test: ELISA: plate coated with murine Flt3, Flt3L variants titrated, detection with biotinylated anti-Flt3L and avidin-HRP
Procedure: Protein was cloned, produced, and purified as described in methods. Following purification, bands were confirmed at the expected sizes via SDS-PAGE under reducing conditions (WT at around 30 KDa with multiple bands due to glycosylation differences and Flt3L-MSA at around 75 KDa). Binding of each protein to the receptor for Flt3L (murine Flt3, R&D 768-F3-050) was then confirmed via ELISA. Briefly, high binding plates were coated overnight with 50 μL of 1 nM protein in a Carb/Bicarb buffer pH of 9. The plates were then washed and blocked using R&D blocking buffer before the addition of Flt3L variants at different concentrations in blocking buffer. Detection occurred using biotinylated αFlt3L and subsequent incubation with avidin-HRP. Binding was then visualized via incubation with TMB solution until highest concentrations reached an approximate absorbance of 1 and the reaction was stopped using 2N H2SO4.
High-bind plates (Corning #9018) were coated by incubating overnight at 4 C with 10 nM recombinant CD135 (R&D 768-F3-050) in […] sodium bicarbonate buffer at pH 9.2. Following coating, plates were washed in PBST before blocking in 1× reagent diluent (R&D DY995) for 2 hours at RT. Samples were then diluted to the indicated concentration in triplicate using the same reagent diluent. […] Quantification occurred by reading the absorbance at 450 nm and 570 nm.

| Kd [nM] | Binder |
| --- | --- |
| 0.16 | Flt3L fused to Mouse Serum Albumin (Flt3L-MSA) (other, also called MSA fused Flt3L; Flt3L-SA) MTPDCYFSHSPISSNFKVKFRELTDHLLKDYPVTVAVNLQDEKHCKALWSLFLAQRWIEQLKTVAGSKMQTLLEDVNTEIHFVTSCTFQPLPECLRFVQTNISHLLKDTCTQLLALKPCIGKACQNFSRCLEVQCQPDSSTLLPPRSPIALEATELPEPRPRQGGGGSGGGGSEAHKSEIAHRYNDLGEQHFKGLVLIAFSQYLQKCSYDEHAKLVQEVTDFAKTCVADESAANCDKSLHTLFGDKLCAIPNLRENYGELADCCTKQEPERNECFLQHKDDNPSLPPFERPEAEAMCTSFKENPTTFMGHYLHEVARRHPYFYAPELLYYAEQYNEILTQCCAEADKESCLTPKLDGVKEKALVSSVRQRMKCSSMQKFGERAFKAWAVARLSQTFPNADFAEITKLATDLTKVNKECCHGDLLECADDRAELAKYMCENQATISSKLQTCCDKPLLKKAHCLSEVEHDTMPADLPAIAADFVEDQEVCKNYAEAKDVFLGTFLYEYSRRHPDYSVSLLLRLAKKYEATLEKCCAEANPPACYGTVLAEFQPLVEEPKNLVKTNCDLYEKLGEYGFQNAILVRYTQKAPQVSTPTLVEAARNLGRVGTKCCTLPEDQRLPCVEDYLSAILNRVCLLHEKTPVSEHVTKCCSGSLVERRPCFSALTVDETYVPKEFKAETFTFHSDICTLPEKEKQIKKQTALAELVKHKPKATAEQLKTVMDDFAQFLDTCCKAADKDTCFSTEGPNLVTRCKDALAHHHHHH |
| 0.16 | wild type murine Flt3L (ligand, Made in HEK293F cells and glycosylated (multiple bands around 30 kDa); also called WT Flt3L; WT; not shown: it was purified over a HisTrap HP column, so it probably carries a His tag) MTPDCYFSHSPISSNFKVKFRELTDHLLKDYPVTVAVNLQDEKHCKALWSLFLAQRWIEQLKTVAGSKMQTLLEDVNTEIHFVTSCTFQPLPECLRFVQTNISHLLKDTCTQLLALKPCIGKACQNFSRCLEVQCQPDSSTLLPPRSPIALEATELPEPRPRQ |
